Data from IntAct's records for PubMed 31663849.

B1: Secretagogin (Homo sapiens), O76038 (parent)
chain: MDSSREPTLGRLDAAGFWQVWQRFDADEKGYIEEKELDAFFLHMLMKLGTDDTVMKANLHKVKQQFMTTQDASKDGRIRMKELAGMFLSEDENFLLLFRRENPLDSSVEFMQIWRKYDADSSGFISAAELRNFLRDLFLHHKKAISEAKLEEYTGTMMKIFDRNKDGRLDLNDLARILALQENFLLQFKMDACSTEERKRDFEKIFAYYDVSKTGALEGPEVDGFVKDMMELVQPSISGVDLDKFREILLRHCDVNKDGKIQKSELALCLGLKINP

Variants of: B1
Conditions: with snp25_mouse Snap25, P60879
snp25_mouse Snap25, P60879, sequence (P60879 whole entry, looked up): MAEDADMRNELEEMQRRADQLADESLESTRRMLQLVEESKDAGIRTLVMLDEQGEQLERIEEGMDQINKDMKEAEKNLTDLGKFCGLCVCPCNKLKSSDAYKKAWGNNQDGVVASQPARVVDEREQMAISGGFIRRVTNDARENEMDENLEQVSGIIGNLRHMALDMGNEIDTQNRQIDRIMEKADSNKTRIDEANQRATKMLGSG

| Variant | effect of a mutation on the interaction |
| --- | --- |
| MDSSREPTLGRLDAAGFWQVWQRFDADEKGYIEEKELDAFFLHMLMKLGTDDTVMKANLHKVKQQFMTTQDASKDGHIRMKELAGMFLSEDENFLLLFRRENPLDSSVEFMQIWRKYDADSSGFISAAELRNFLRDLFLHHKKAISEAKLEEYTGTMMKIFDRNKDGRLDLNDLARILALQENFLLQFKMDACSTEERKRDFEKIFAYYDVSKTGALEGPEVDGFVKDMMELVQPSISGVDLDKFREILLRHCDVNKDGKIQKSELALCLGLKINP [R77H] | with no effect |
